The source of these data is the RNAGym collection of RNA variant scans (doi:10.1093/molbev/msab373).

B1: Azoarcus group I ribozyme (parent)
chain: GUGCCUUGCGCCGGGAAACCACGCAAGGGAUGGUGUCAAAUUCGGCGAAACCUAAGCGCCCGCCCGGGCGUAUGGCAACGCCGAGCCAAGCUUCGGCGCCUGCGCCGAUGAAGGUGUAGAGACUAGACGGCACCCACCUAAGGCAAACGCUAUGGUGAAGGCAUAGUCCAGGGAGUGGCGAAAGUCACACAAACCGG

Variants of B1 are the subject of the data set. Description: reverse-splicing fitness (ratio to wild type); higher = more active; in vitro selection; Mg2+ level not given. A digest of the protocol: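 An in vitro group I ribozyme library with randomized positions was T7-transcribed and gel-purified. In triplicate, 10 pmol RNA in EPPS pH 7.5 was reacted with 50 pmoles of a 30-nt RNA substrate for 1 h at 37 °C across several added MgCl2 levels (1–48 mM), then stopped with EDTA. Products were reverse transcribed from a substrate-complementary primer, PCR-amplified and sequenced (HiSeq 4000). Fitness is a variant's read proportion after selection over that before, normalised to wild type.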
As to A111G A120U A145U C150U U176C, the reverse-splicing fitness is 0.279.

Consider A111G A120U A145U C150U U176G, for which the reverse-splicing fitness stood at 0.0789.

Turning to A111G A120U A145C, the reverse-splicing fitness stood at 0.701.

For the variant A111G A120U A145G, the reverse-splicing fitness was found to be 0.667.

Take A111G A120U A145U: the reverse-splicing fitness was determined as 0.759.

A111G A145C C150U C169A U176G: the reverse-splicing fitness is 0.0059.

Turning to A111G A145C C150U C169A U176C, the reverse-splicing fitness was determined as 0.00832.

Turning to A111G A145C C150U C169A U176A, the reverse-splicing fitness amounted to 0.0101.

On to A111G A120U A145G C150A C169U U176A, for which the reverse-splicing fitness came to 0.00579.

Take A111G A120U A145G C150A C169U U176G: the reverse-splicing fitness was determined as 0.00242.

With A111G A120U A145G C150A C169U U176C, the reverse-splicing fitness was 0.00673.

For the variant A111G A120U C150A C169A, the reverse-splicing fitness was found to be 0.00359.

With A111G A120U C150A C169U, the reverse-splicing fitness came to 0.0125.

A111G A120U C150A C169G: the reverse-splicing fitness stood at 0.0107.

Consider A111G A120U C169A U176C, for which the reverse-splicing fitness came out at 0.00321.

In the case of A111G A120U C169A U176G, the reverse-splicing fitness is 0.00161.

Consider A111G A120U C169A U176A, for which the reverse-splicing fitness was 0.0033.

For A111G A120U A145G C169G U176G, the reverse-splicing fitness amounted to 0.00189.

For A111G A120U A145G C169G U176A, the reverse-splicing fitness came to 0.00934.

As to A111G A120U A145G C169G U176C, the reverse-splicing fitness was 0.0201.

Turning to A111G A120U A145G C150G C169U U176C, the reverse-splicing fitness stood at 0.00697.

A111G A120U A145G C150G C169U U176G: the reverse-splicing fitness is 0.00319.

As to A111G A120U A145G C150G C169U U176A, the reverse-splicing fitness worked out at 0.00497.

Turning to A111G A145C C169G U176G, the reverse-splicing fitness was 0.00491.

As for A111G A145C C169G U176C, the reverse-splicing fitness worked out at 0.0431.

For A111G A145C C169G U176A, the reverse-splicing fitness amounted to 0.0344.

In the case of A111G A120U A145G C150A C169A U176G, the reverse-splicing fitness came to 0.00273.

Regarding A111G A120U A145G C150A C169A U176A, the reverse-splicing fitness was 0.00539.

Turning to A111G A120U A145G C150A C169A U176C, the reverse-splicing fitness is 0.00368.

With A111G A120U A145C C150A C169G, the reverse-splicing fitness came to 0.0049.

Consider A111G A120U A145C C150A C169A, for which the reverse-splicing fitness turned out to be 0.00208.

For A111G A120U A145C C150A C169U, the reverse-splicing fitness amounted to 0.00746.

In the case of A111G A120U A145C C150A C169U U176A, the reverse-splicing fitness came out at 0.00311.

For A111G A120U A145C C150A C169U U176G, the reverse-splicing fitness came to 0.00197.

In the case of A111G A120U A145C C150A C169U U176C, the reverse-splicing fitness is 0.00268.

With A111G A120U A145C C150A U176C, the reverse-splicing fitness turned out to be 0.00924.

Regarding A111G A120U A145C C150A U176G, the reverse-splicing fitness came to 0.00839.

A111G A120U A145C C150A U176A: the reverse-splicing fitness worked out at 0.0179.

Consider A111G A120G U176C, for which the reverse-splicing fitness was determined as 0.117.

For A111G A120G U176A, the reverse-splicing fitness was determined as 0.0836.

As for A111G A120G U176G, the reverse-splicing fitness stood at 0.0093.

With A111G A120U C150U U176G, the reverse-splicing fitness was found to be 0.0744.

Regarding A111G A120U C150U U176A, the reverse-splicing fitness is 0.23.

As for A111G A120U C150U U176C, the reverse-splicing fitness stood at 0.249.

In the case of A111G A120U A145C C150G U176G, the reverse-splicing fitness is 0.0047.

Regarding A111G A120U A145C C150G U176A, the reverse-splicing fitness was found to be 0.0114.

Turning to A111G A120U A145C C150G U176C, the reverse-splicing fitness stood at 0.0153.

A111G A120U A145C C150U C169U U176C: the reverse-splicing fitness worked out at 0.00282.

Regarding A111G A120U A145C C150U C169U U176G, the reverse-splicing fitness was determined as 0.00212.

Take A111G A120U A145C C150U C169U U176A: the reverse-splicing fitness was 0.00601.

Turning to A111G A120U U176G, the reverse-splicing fitness was determined as 0.164.

Consider A111G A120U U176C, for which the reverse-splicing fitness was 0.445.

Take A111G A120U U176A: the reverse-splicing fitness is 0.432.

A111G A120U A145C U176C: the reverse-splicing fitness turned out to be 0.214.

On to A111G A120U A145C U176G, for which the reverse-splicing fitness stood at 0.131.

Take A111G A120U A145C U176A: the reverse-splicing fitness amounted to 0.332.

As to A111G A120G C169U U176C, the reverse-splicing fitness amounted to 0.0969.

For A111G A120G C169U U176G, the reverse-splicing fitness amounted to 0.011.

A111G A120G C169U U176A: the reverse-splicing fitness stood at 0.0845.

In the case of A111G A120U A145U C150A U176A, the reverse-splicing fitness was 0.0447.

In the case of A111G A120U A145U C150A U176C, the reverse-splicing fitness is 0.0372.

Take A111G A120U A145U C150A U176G: the reverse-splicing fitness was determined as 0.018.

Consider A111G A120U C150U C169A U176A, for which the reverse-splicing fitness turned out to be 0.00336.

On to A111G A120U C150U C169A U176C, for which the reverse-splicing fitness is 0.00257.

Turning to A111G A120U C150U C169A U176G, the reverse-splicing fitness was found to be 0.00227.

For the variant A111G A120U A145C C169G U176C, the reverse-splicing fitness worked out at 0.00699.

As to A111G A120U A145C C169G U176A, the reverse-splicing fitness worked out at 0.00876.

For A111G A120U A145C C169G U176G, the reverse-splicing fitness turned out to be 0.00205.

With A111G A120U A145U C150A C169U U176G, the reverse-splicing fitness was found to be 0.00172.

Take A111G A120U A145U C150A C169U U176C: the reverse-splicing fitness was 0.00339.

On to A111G A120U A145U C150A C169U U176A, for which the reverse-splicing fitness is 0.00329.

As to A111G A120U C150G C169A, the reverse-splicing fitness was found to be 0.00729.

In the case of A111G A120U C150G C169U, the reverse-splicing fitness was 0.0103.

Regarding A111G A120U C150G C169G, the reverse-splicing fitness is 0.0111.

For A111G A120U C150A U176C, the reverse-splicing fitness came out at 0.0464.

With A111G A120U C150A U176G, the reverse-splicing fitness is 0.0203.

Consider A111G A120U C150A U176A, for which the reverse-splicing fitness was found to be 0.0485.

Regarding A111G A120U A145U C150U, the reverse-splicing fitness was 0.584.

For the variant A111G A120U A145U C150G, the reverse-splicing fitness was found to be 0.105.

As for A111G A120U A145U C150A, the reverse-splicing fitness worked out at 0.0903.

Consider A111G A120U A145U C150A C169G U176A, for which the reverse-splicing fitness is 0.00286.

Regarding A111G A120U A145U C150A C169G U176G, the reverse-splicing fitness was 0.00159.

As for A111G A120U A145U C150A C169G U176C, the reverse-splicing fitness stood at 0.00285.
